Results on 48 variants are retold here after the Human Domainome abundance scans (Beltran et al. 2025).

± gives the uncertainty stated by the source.

The labels stand for the following.
B1: POU domain, class 6, transcription factor 2, residues 609 to 663; numbered along this chain, P78424 (parent)
chain: KRRTSFTPQALEILNAHFEKNTHPSGQEMTEIAEKLNYDREVVRVWFCNKRQALK

In the data set the parent is B1. Briefly: abundance fitness (aPCA) (normalised: wild type 0, dead -1); higher = more abundant; growth selection in yeast, the domain comes from the species named. Particulars: Homo sapiens.
For KRRTSFTPQALEILNAHWEKNTHPSGQEMTEIAEKLNYDREVVRVWFCNKRQALK [F18W], the abundance fitness was -0.086 ± 0.071.

As to KRRTSFTPQALEILNAHYEKNTHPSGQEMTEIAEKLNYDREVVRVWFCNKRQALK [F18Y], the abundance fitness turned out to be 0.107 ± 0.15.

On to KRRTSFTPQALEILNAHEEKNTHPSGQEMTEIAEKLNYDREVVRVWFCNKRQALK [F18E], for which the abundance fitness is -0.892 ± 0.11.

In the case of KRRTSFTPQALEIWNAHFEKNTHPSGQEMTEIAEKLNYDREVVRVWFCNKRQALK [L14W], the abundance fitness was -1.03 ± 0.13.

On to KRRTSFTPQALEIVNAHFEKNTHPSGQEMTEIAEKLNYDREVVRVWFCNKRQALK [L14V], for which the abundance fitness is -0.729 ± 0.089.

With KRRTSFTPQALEIQNAHFEKNTHPSGQEMTEIAEKLNYDREVVRVWFCNKRQALK [L14Q], the abundance fitness is -0.819 ± 0.11.

For the variant KRRTSFTPQALEISNAHFEKNTHPSGQEMTEIAEKLNYDREVVRVWFCNKRQALK [L14S], the abundance fitness is -1.05 ± 0.14.

Turning to KRRTSFTPQALEITNAHFEKNTHPSGQEMTEIAEKLNYDREVVRVWFCNKRQALK [L14T], the abundance fitness is -0.936 ± 0.19.

Consider KRRTSFTPQALEIYNAHFEKNTHPSGQEMTEIAEKLNYDREVVRVWFCNKRQALK [L14Y], for which the abundance fitness was -0.878 ± 0.24.

For KRRTSFTPQALEIPNAHFEKNTHPSGQEMTEIAEKLNYDREVVRVWFCNKRQALK [L14P], the abundance fitness is -0.852 ± 0.21.

As to KRRTSFTPQALEINNAHFEKNTHPSGQEMTEIAEKLNYDREVVRVWFCNKRQALK [L14N], the abundance fitness is -1.06 ± 0.34.

For the variant KRRTSFTPQALEILNAHFLKNTHPSGQEMTEIAEKLNYDREVVRVWFCNKRQALK [E19L], the abundance fitness is -0.057 ± 0.077.

As to KRRTSFTPQALEILNAHFHKNTHPSGQEMTEIAEKLNYDREVVRVWFCNKRQALK [E19H], the abundance fitness was -0.092 ± 0.14.

For the variant KRRTSFTPQALEILNAHFRKNTHPSGQEMTEIAEKLNYDREVVRVWFCNKRQALK [E19R], the abundance fitness is -0.05 ± 0.071.

Regarding KRRTSFTPQALEILNAHFNKNTHPSGQEMTEIAEKLNYDREVVRVWFCNKRQALK [E19N], the abundance fitness is -0.07 ± 0.15.

In the case of KRRTSFTPQALEILNAHFMKNTHPSGQEMTEIAEKLNYDREVVRVWFCNKRQALK [E19M], the abundance fitness was -0.013 ± 0.11.

On to KRRTSFTPQALEILNAHFQKNTHPSGQEMTEIAEKLNYDREVVRVWFCNKRQALK [E19Q], for which the abundance fitness was -0.391 ± 0.18.

Consider KRRTSFTPQALEILNAHFIKNTHPSGQEMTEIAEKLNYDREVVRVWFCNKRQALK [E19I], for which the abundance fitness worked out at 0.032 ± 0.1.

As to KRRTSFTPQALEILNAHFWKNTHPSGQEMTEIAEKLNYDREVVRVWFCNKRQALK [E19W], the abundance fitness was -0.127 ± 0.1.

For the variant KRRTSFTPQALEILNAHFGKNTHPSGQEMTEIAEKLNYDREVVRVWFCNKRQALK [E19G], the abundance fitness was -0.148 ± 0.056.

As for KRRTSFTPQALEILNAHFSKNTHPSGQEMTEIAEKLNYDREVVRVWFCNKRQALK [E19S], the abundance fitness came to 0.073 ± 0.072.

In the case of KRRTSFTPQALEILNAHFDKNTHPSGQEMTEIAEKLNYDREVVRVWFCNKRQALK [E19D], the abundance fitness was -0.037 ± 0.11.

Regarding KRRTSFTPQALEILNAHFPKNTHPSGQEMTEIAEKLNYDREVVRVWFCNKRQALK [E19P], the abundance fitness was -1.05 ± 0.24.

With KRRTSFTPQALEILNAHFCKNTHPSGQEMTEIAEKLNYDREVVRVWFCNKRQALK [E19C], the abundance fitness is -0.085 ± 0.095.

Consider KRRTSFTPQALEILNAHFAKNTHPSGQEMTEIAEKLNYDREVVRVWFCNKRQALK [E19A], for which the abundance fitness came out at 0.046 ± 0.074.

With KRRTSFTPQALEILNAHFFKNTHPSGQEMTEIAEKLNYDREVVRVWFCNKRQALK [E19F], the abundance fitness was -0.288 ± 0.12.

On to KRRTSFTPQALEILNAFFEKNTHPSGQEMTEIAEKLNYDREVVRVWFCNKRQALK [H17F], for which the abundance fitness is -0.056 ± 0.098.

With KRRTSFTPQALEILNAAFEKNTHPSGQEMTEIAEKLNYDREVVRVWFCNKRQALK [H17A], the abundance fitness is -0.03 ± 0.067.

For the variant KRRTSFTPQALEILNAIFEKNTHPSGQEMTEIAEKLNYDREVVRVWFCNKRQALK [H17I], the abundance fitness was -0.028 ± 0.12.

In the case of KRRTSFTPQALEILNACFEKNTHPSGQEMTEIAEKLNYDREVVRVWFCNKRQALK [H17C], the abundance fitness was -0.063 ± 0.072.

As to KRRTSFTPQALEILNAQFEKNTHPSGQEMTEIAEKLNYDREVVRVWFCNKRQALK [H17Q], the abundance fitness is -0.002 ± 0.086.

For KRRTSFTPQALEILNAKFEKNTHPSGQEMTEIAEKLNYDREVVRVWFCNKRQALK [H17K], the abundance fitness turned out to be 0.04 ± 0.1.

On to KRRTSFTPQALEILNAEFEKNTHPSGQEMTEIAEKLNYDREVVRVWFCNKRQALK [H17E], for which the abundance fitness was 0.064 ± 0.072.

Regarding KRRTSFTPQALEILNAMFEKNTHPSGQEMTEIAEKLNYDREVVRVWFCNKRQALK [H17M], the abundance fitness is -0.028 ± 0.077.

For the variant KRRTSFTPQALEILNALFEKNTHPSGQEMTEIAEKLNYDREVVRVWFCNKRQALK [H17L], the abundance fitness was -0.008 ± 0.058.

As for KRRTSFTPQALEILNASFEKNTHPSGQEMTEIAEKLNYDREVVRVWFCNKRQALK [H17S], the abundance fitness is -0.065 ± 0.063.

KRRTSFTPQALEILNAYFEKNTHPSGQEMTEIAEKLNYDREVVRVWFCNKRQALK [H17Y]: the abundance fitness is -0.065 ± 0.092.

For the variant KRRTSFTPQALEILNAPFEKNTHPSGQEMTEIAEKLNYDREVVRVWFCNKRQALK [H17P], the abundance fitness is -0.961 ± 0.25.

Turning to KRRTSFTPQALEILNAWFEKNTHPSGQEMTEIAEKLNYDREVVRVWFCNKRQALK [H17W], the abundance fitness was 0.011 ± 0.068.

Consider KRRTSFTPQALEILNADFEKNTHPSGQEMTEIAEKLNYDREVVRVWFCNKRQALK [H17D], for which the abundance fitness is -0.156 ± 0.09.

Turning to KRRTSFTPQALEILNAGFEKNTHPSGQEMTEIAEKLNYDREVVRVWFCNKRQALK [H17G], the abundance fitness is -0.369 ± 0.057.

Consider KRRTSFTPQALEILNARFEKNTHPSGQEMTEIAEKLNYDREVVRVWFCNKRQALK [H17R], for which the abundance fitness is -0.101 ± 0.057.

For the variant KRRTSFTPQALEILNAVFEKNTHPSGQEMTEIAEKLNYDREVVRVWFCNKRQALK [H17V], the abundance fitness is -0.031 ± 0.054.

With KRRTSFTPQALEILNANFEKNTHPSGQEMTEIAEKLNYDREVVRVWFCNKRQALK [H17N], the abundance fitness was -0.101 ± 0.15.

For KRRTSFTPQALEILNAHFECNTHPSGQEMTEIAEKLNYDREVVRVWFCNKRQALK [K20C], the abundance fitness was -0.289 ± 0.086.

On to KRRTSFTPQALEILNAHFEDNTHPSGQEMTEIAEKLNYDREVVRVWFCNKRQALK [K20D], for which the abundance fitness is -0.291 ± 0.13.

On to KRRTSFTPQALEILNAHFEENTHPSGQEMTEIAEKLNYDREVVRVWFCNKRQALK [K20E], for which the abundance fitness was -0.007 ± 0.099.

Take KRRTSFTPQALEILNAHFEANTHPSGQEMTEIAEKLNYDREVVRVWFCNKRQALK [K20A]: the abundance fitness is -0.064 ± 0.073.
